One block for each molecule: values may come before it.
Key:
[1] = molecular target: Plexin-B1_(cyto) (entire cytoplasmic domain of human Plexin-B1, residues 1511-2135) (human) (UniProt O43157); experiment: crystal structure; Plexin-B1_(cyto) and Rac1* mixed 1:1.2; 1 M Li2SO4, 0.5 M ammonium sulphate, 0.1 M citrate pH 5.6; 4.4 Å; three complexes in the asymmetric unit
Plexin-B1Δ2 Leu1815Glu [2] = molecular target: T1, Plexin-B1Δ2 Leu1815Glu (human, UniProt O43157-1 1543-2135, Leu1815Glu, biotin, added enzymatically within the engineered C-terminal tag); experiment: SPR; as a1, high coupling density: 5,000 RU of the plexin construct loaded on the chip; RhoGTPase 120 nM to 2,000 µM; conditions: both partners purified
T1 construct: human Plexin-B1, cytoplasmic region lacking the N-terminal helix, residues 1543-2135; also called site A Plexin-B1Δ2 mutant Leu1815Glu^Plex; source: HEK 293T cells, transfected, purified; not shown: engineered tag for enzymatic biotinylation, C-terminal, kept
T1 sequence (O43157 1543-2135 L1815E): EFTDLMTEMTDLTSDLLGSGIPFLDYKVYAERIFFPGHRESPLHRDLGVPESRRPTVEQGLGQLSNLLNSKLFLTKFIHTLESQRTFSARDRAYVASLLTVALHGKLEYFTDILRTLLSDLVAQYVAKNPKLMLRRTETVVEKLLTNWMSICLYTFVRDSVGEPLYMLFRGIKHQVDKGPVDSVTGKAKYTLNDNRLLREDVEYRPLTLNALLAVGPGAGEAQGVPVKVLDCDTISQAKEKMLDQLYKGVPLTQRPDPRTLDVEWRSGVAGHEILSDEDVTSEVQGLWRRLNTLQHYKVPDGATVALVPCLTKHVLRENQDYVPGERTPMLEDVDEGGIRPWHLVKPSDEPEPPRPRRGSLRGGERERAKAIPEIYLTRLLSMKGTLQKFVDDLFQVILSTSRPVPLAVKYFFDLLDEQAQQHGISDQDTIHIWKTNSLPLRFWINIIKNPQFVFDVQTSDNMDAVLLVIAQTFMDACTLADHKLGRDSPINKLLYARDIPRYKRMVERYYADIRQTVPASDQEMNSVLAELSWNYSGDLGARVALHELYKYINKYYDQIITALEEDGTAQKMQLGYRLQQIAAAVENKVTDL

[3] = molecular target: Plexin-B1_(cyto) Thr1920Glu (human, UniProt O43157-1 1511-2135, Thr1920Glu, biotin, added enzymatically within the engineered C-terminal tag); experiment: SPR
Target sequence in this assay (O43157 1511-2135 T1920E): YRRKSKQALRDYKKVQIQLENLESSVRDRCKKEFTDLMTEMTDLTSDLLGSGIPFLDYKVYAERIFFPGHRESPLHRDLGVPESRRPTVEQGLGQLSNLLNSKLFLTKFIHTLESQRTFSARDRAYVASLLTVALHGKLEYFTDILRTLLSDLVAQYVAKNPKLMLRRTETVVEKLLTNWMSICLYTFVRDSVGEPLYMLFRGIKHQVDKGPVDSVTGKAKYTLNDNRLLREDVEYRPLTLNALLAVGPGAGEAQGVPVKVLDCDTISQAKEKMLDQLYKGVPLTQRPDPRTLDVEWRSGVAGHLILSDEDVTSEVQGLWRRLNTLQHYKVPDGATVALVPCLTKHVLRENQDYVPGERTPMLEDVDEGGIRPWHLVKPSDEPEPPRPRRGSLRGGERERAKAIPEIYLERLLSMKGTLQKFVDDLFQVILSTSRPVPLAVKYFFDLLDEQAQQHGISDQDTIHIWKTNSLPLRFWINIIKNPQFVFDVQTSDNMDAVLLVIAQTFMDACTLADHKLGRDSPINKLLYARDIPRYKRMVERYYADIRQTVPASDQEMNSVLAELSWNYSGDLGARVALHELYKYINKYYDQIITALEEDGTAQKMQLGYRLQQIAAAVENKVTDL

[4] = molecular target: Plexin-B1_(cyto) Leu2036Arg (human, UniProt O43157-1 1511-2135, Leu2036Arg, biotin, added enzymatically within the engineered C-terminal tag); experiment: SPR
Target sequence in this assay (O43157 1511-2135 L2036R): as the sequence (O43157 1511-2135 T1920E) above, with E410T, L526R counted along it

[5] = molecular target: Plexin-B1_(cyto) Arg1921Ala (human, UniProt O43157-1 1511-2135, Arg1921Ala, biotin, added enzymatically within the engineered C-terminal tag); experiment: SPR
Target sequence in this assay (O43157 1511-2135 R1921A): as the sequence (O43157 1511-2135 T1920E) above, with E410T, R411A counted along it

[6] = molecular target: T2, Plexin-B1_(cyto) Thr1920Glu (human, UniProt O43157-1 1511-2135, Thr1920Glu, biotin, added enzymatically within the engineered C-terminal tag); experiment: SPR; Biacore T100, 25°C, standard buffer with 0.05% (v/v) Tween 20; biotinylated plexin constructs on streptavidin surfaces (500-5,000 RU); RhoGTPase injected, 120 nM to 500 µM; equilibrium responses fitted to a 1:1 Langmuir model; conditions: both partners purified
T2 construct: human Plexin-B1, cytoplasmic region, residues 1511-2135; also called Thr1920Glu^Plex; site B mutant; source: HEK 293T cells, transfected, purified; not shown: engineered tag for enzymatic biotinylation, C-terminal, kept
T2 sequence (O43157 1511-2135 T1920E): as the sequence (O43157 1511-2135 T1920E) above

[7] = molecular target: T3, Plexin-B1_(cyto) Arg1921Ala (human, UniProt O43157-1 1511-2135, Arg1921Ala, biotin, added enzymatically within the engineered C-terminal tag); experiment: as above; conditions: both partners purified
T3 construct: human Plexin-B1, cytoplasmic region, residues 1511-2135; also called Arg1921Ala^Plex; site B mutant; source: HEK 293T cells, transfected, purified; not shown: engineered tag for enzymatic biotinylation, C-terminal, kept
T3 sequence (O43157 1511-2135 R1921A): as the sequence (O43157 1511-2135 T1920E) above, with E410T, R411A counted along it

[8] = molecular target: T4, Plexin-B1_(cyto) Leu2036Arg (human, UniProt O43157-1 1511-2135, Leu2036Arg, biotin, added enzymatically within the engineered C-terminal tag); experiment: as above; conditions: both partners purified
T4 construct: human Plexin-B1, cytoplasmic region, residues 1511-2135; also called Leu2036Arg^Plex; site B mutant; source: HEK 293T cells, transfected, purified; not shown: engineered tag for enzymatic biotinylation, C-terminal, kept
T4 sequence (O43157 1511-2135 L2036R): as the sequence (O43157 1511-2135 T1920E) above, with E410T, L526R counted along it

[9] = molecular target: T5, Plexin-B1_(cyto), wild type, biotinylated within an engineered C-terminal tag for SPR (human, UniProt O43157-1 1511-2135, biotin, added enzymatically within the engineered C-terminal tag); experiment: as above; conditions: both partners purified
T5 construct: human Plexin-B1, cytoplasmic region, residues 1511-2135; also called Plexin-B1cyto WT; full-length Plexin-B1_(cyto); source: purified; mutant constructs for SPR: HEK 293T; not shown: engineered tag for enzymatic biotinylation, C-terminal, kept

Plexin-B1Δ2 Leu1815Glu [10] = molecular target: Plexin-B1Δ2 Leu1815Glu (human, UniProt O43157-1 1543-2135, Leu1815Glu, biotin, added enzymatically within the engineered C-terminal tag); experiment: SPR; surface 5,000 RU
Target sequence in this assay (O43157 1543-2135 L1815E): as the sequence (O43157 1543-2135 L1815E) above

T5 sequence (O43157 1511-2135, change not shown): as the sequence (O43157 1511-2135 T1920E) above, with E410T counted along it

- stoichiometry N [1]: 3
Molecule: Plexin-B1_(cyto) (entire cytoplasmic domain of human Plexin-B1, residues 1511-2135) (from UniProt O43157-1 1511-2135) (domain or fragment)

- binding result (Plexin-B1Δ2 Leu1815Glu [2]): binds
- Kd [3]: 14.2 µM
- Kd [4]: 16.5 µM
- Kd [5]: 15.2 µM
- binding result [6]: binds
- binding result [7]: binds
- binding result [8]: binds
- Kd [9]: 22.9 µM
- Kd (Plexin-B1Δ2 Leu1815Glu [10]): 486 µM
B1: Rnd1 (residues 5-200) (enzyme, human, UniProt Q92730 5-200, looked up)
chain: RAPQPVVARCKLVLVGDVQCGKTAMLQVLAKDCYPETYVPTVFENYTACLETEEQRVELSLWDTSGSPYYDNVRPLCYSDSDAVLLCFDISRPETVDSALKKWRTEILDYCPSTRVLLIGCKTDLRTDLSTLMELSHQKQAPISYEQGCAIAKQLGAEIYLEGSAFTSEKSIHSIFRTASMLCLNKPSPLPQKSPV
notes: human Rnd1, residues 5-200; source: E. coli BL21 Star, purified

Reference: paper PMC3166162, “A Dual Binding Mode for RhoGTPases in Plexin Signalling” (PLoS Biology, 2011)
